Laboratory results: US20090175872A1, “Treatment of Conditions Involving Demyelination” (BIOGEN Idec MA Inc., priority 2005, published 2009)

Tests used:
[1] = tested on: co-cultures of dorsal root ganglion (DRG) neurons and oligodendrocytes; experiment: Myelination in co-cultures of DRG neurons and oligodendrocytes; assay type: cell-based, rat
Protocol: The role of Sp35 in myelination was examined in vitro by treating co-cultures of dorsal root ganglion (DRG) neurons and oligodendrocytes with Sp35-Fc and testing for myelination by immunohistochemistry and electron microscopy. For these studies, it was necessary to first generate primary cultures of DRG neurons and of oligodendrocytes.
Female Long Evans rat E14-E17 embryonic dorsal root ganglia were cultured as described by Plant et al., J. Neurosci. 22:6083-91 (2002). Dissected DRGs were plated on poly-L-lysine-coated cover slips (100 μg/ml) for 2 weeks in the presence of fluorodeoxyuridine for days 2-6 and days 8-11 in NLA medium containing 1×B27, 100 ng/ml NGF (Invitrogen).
A2B5^+ oligodendrocytes were prepared as described in Example 1, and were harvested by trypsinization.
For coculture studies, A2B5^+ oligodendrocytes were added to DRG neuron drop cultures in the presence or absence of 10 μg/ml Sp35-Fc. The culture medium (Neurobasal medium supplemented with B27 and 100 ng/ml NGF) was changed, and fresh Sp35-Fc was added to the cells every 3 d. To identify changes in myelination, 2-week-old cultures were stained by immunohistochemical staining (“IHC”) for neurofilaments with anti-βIII-tubulin antibody to identify axons, or anti-MBP antibody to identify oligodendrocytes., and 4-week-old cultures were subjected to SDS-PAGE followed by western blot analyses to quantify the MBP. In selected examples, cells were fixed for electron microscopy studies by adding 2.5% gluteraldehyde directly onto the cover slips. Myelinated axons in the 2-week-old cultures were quantified by counting the number of myelinated internode bundles that were derived from single MBP^+ oligodendrocytes. Samples were analyzed in duplicate. Error bars denote individual determinations. P values in all studies were determined using a one-way analysis of variance. […]
We performed experiments to address the relative contributions to the myelination process of Sp35 in DRG neurons as compared to oligodendrocytes. We infected DRG neurons, oligodendrocytes and co-cultures (prepared as described in Example 5) with the FL-Sp35 and DN-Sp35 lentiviral vectors described in Example 1 and performed immunohistochemical straining for myelinated MBP^+ cells after two weeks. A 2-fold increase in MBP levels in co-cultures where both cells express DN-Sp35 and a 2-fold decrease in MBP levels in co-cultures where both cells express FL-Sp35 was observed (FIG. 10G).

[2] = tested on: Caspase-3; experiment: Caspase-3 activation in differentiated PC12 cells after NGF withdrawal (Caspase 3/7 Glo); assay type: cell-based; conditions: 18 hours after removal of NGF
Protocol: PC 12 cells (Neuroscreen) were differentiated in RPMI-1640 medium supplemented with 5% fetal bovine serum, 10% horse serum, 2 mM glutamine, 100 U/ml penicillin and […] streptomycin containing 200 ng/ml NGF for 7 days. For experiments, the culture media was replaced with NGF-free culture media containing Sp35-Fc, human IgG as a negative control (0.1-10 μM), or zVAD as a positive control (0.1 μM). 18 hours after NGF withdrawal, activated Caspase-3 was quantified using the Caspase 3/7 Glo kit (Promega) according to the manufacturer's instructions. 42 hours after NGF withdrawal, apoptotic cell death was quantified using a cell death detection ELISA kit (Roche) according to the manufacturer's instructions.

B1: Sp35-Fc: extra-cellular portion of human Sp35 (residues 1-532) fused to the hinge and Fc region of human IgG1 (protein)
chain: TGCPPRCECSAQDRAVLCHRKRFVAVPEGIPTETRLLDLGKNRIKTLNQDEFASFPHLEELELNENIVSAVEPGAFNNLFNLRTLGLRSNRLKLIPLGVFTGLSNLTKLDISENKIVILLDYMFQDLYNLKSLEVGDNDLVYISHRAFSGLNSLEQLTLEKCNLTSIPTEALSHLHGLIVLRLRHLNINAIRDYSFKRLYRLKVLEISHWPYLDTMTPNCLYGLNLTSLSITHCNLTAVPYLAVRHLVYLRFLNLSYNPISTIEGSMLHELLRLQEIQLVGGQLAVVEPYAFRGLNYLRVLNVSGNQLTTLEESVFHSVGNLETLILDSNPLACDCRLLWVFRRRWRLNFNRQQPTCATPEFVQGKEFKDFPDVLLPNYFTCRRARIRDRKAQQVFVDEGHTVQFVCRADGDPPPAILWLSPRKHLVSAKSNGRLTVFPDGTLEVRYAQVQDNGTYLCIAANAGGNDSMPAHLHVRSYSPDWPHQPNKTFAFISNQPGE
modifications: left off: a dimerising Fc or GST
notes: extra-cellular portion of human Sp35 (residues 1-532) fused to the hinge and Fc region of human IgG1
[1]; 4-week co-cultures, FIG. 10C
  internodes and nodes of Ranvier by electron microscopy: Multiple wellformed internodes were observed
[1]; 4-week-old treated co-cultures, anti-MBP antibody
  expression of MBP (western blot): increased
[1]; exogenously added
  effect on myelination when both cell types overexpress DN-Sp35: slight effects
  effect on myelination when either cell type overexpresses DN-Sp35 alone: further enhanced myelination
[1]; exogenously added, FL-Sp35 in either or both cell types
  effect on inhibition of myelination by overexpression of FL-Sp35: reversed the inhibition of myelination
[1]; treatment for 2 weeks, dose-dependent, FIG. 10A
  axonal myelination (MBP+ myelinated axons): robust axonal myelination
[2]; 0.1 μM
  Caspase-3 activation: reduced Caspase-3 activation
[2]; 1 or 10 μM, dose-dependent, FIG. 14
  Caspase-3 activation compared with zVAD (0.1 μM): as effective as a neuroprotective dose of the caspase inhibitor zVAD
